Source: patent US10100120B2, “Antibody which specifically binds to human CRTH2” (KYOWA HAKKO KIRIN CO., LTD, priority 2015, dated 2018)

System: human eosinophils
Experiment: Eosinophil depletion (cytotoxic) activity in human peripheral blood cells, flow cytometry
Format: cell-based
Conditions: 37° C., 20 hours
Experimental: Human peripheral blood collected by adding a heparin sodium injection liquid was centrifuged at 4° C. and 1500 rpm for 30 minutes, and the plasma was recovered.
After the plasma was recovered, PBS (NACALAI TESQUE, Inc.) was added to the pellet containing the red blood up to the original volume of blood and the pellet was suspended. Next, to 1 mL of the suspension, 10 mL of hemolyzing solution [solution obtained by diluting 10×RBC Lysis buffer (eBioscience) 10 times with sterile water] was added to be mixed by inversion. The resultant was allowed to stand at room temperature for 10 minutes and centrifuged at room temperature and 1500 rpm for 5 minutes and washed twice with PBS after the supernatant was removed therefrom.
Thereafter, the cell pellet was suspended with the recovered plasma and the cells were seeded in a 48-well plate at 300 μL/well, each of chLym2, humanized Lym2 antibodies LV0HV0, LV0HV1, and LV0HV2a, or an isotype control antibody [IgG1 antibody prepared according to the method described in Example 5 using a vector encoding an anti-2,4-dinitrophenol (DNP) IgG1 antibody described in Clin Cancer Res 2005, 11(8), 3126 to 3135 (hereinafter, referred to as anti-DNP IgG1 antibody)] were added at each final concentrations of 1000, 100, 33, 11, 3.7, 1.2, 0.4, and 0.01 ng/mL to cause a reaction in a 5% CO2 incubator at 37° C. for 20 hours.
After the reaction, the cell fluid in each well was recovered, 10 mL of SM was added thereto, 200 μL per sample of CountBright Absolute Counting Beads, for flow cytometry (Molecular Probes) was added as control beads, and the fluid was centrifuged at 4° C. and 2000 rpm for 10 minutes, and then the supernatant was removed. The resultant was washed twice with SM, 10000 μg/mL of IgG from human serum (Sigma-Aldrich Co. LLC) diluted with SM was added at 300 μL/sample and suspended to cause a reaction at 4° C. for 30 minutes. […]
The cells were washed twice with SM, suspended by SM containing 1% of 7-AAD Staining Solution (BD Biosciences), allowed to stand at 4° C. for 10 minutes, and the fluorescent intensity was analyzed by flow cytometry (BD Biosciences, FACS CantoII).
Human eosinophils were detected as 7-AAD negative siglec8-PE positive fractions in granulocyte fractions of FSC-SSC deployment. Human basophils were detected as 7-AAD negative fractions, CD123-PC-Cy7 positive fractions, FcεRI-APC positive fractions in lymphocyte fractions of FSC-SSC deployment. The cell depletion activity was evaluated by analyzing the count number of each cell per a certain number of CountBright. […]

B1: LV0HV1: humanized Lym2 antibody, VL LV0 (SEQ ID NO: 33), VH HV1 (SEQ ID NO: 51) (antibody, V domains shown)
VH: EVQLVESGGGVVQPGRSLRLSCAASGFTFSNYYMAWVRQAPGKGLEWVATISYDGSSTYYRDSVKGRFTISRDNAKNSLYLQMNSLRAEDTATYYCARHRGYYYSGAGYFDYWGQGTMVTVSS
VL: DIVMTQTPLSLPVTPGESASISCRSSQSLEYSDGYTYLEWYLQKPGQSPQVLIYGVSNRFSGVPDRFSGSGSGTDFTLKISRVEAEDVGVYYCFQATHDPLTFGQGTKLEIK
Example 8, 0.01-1000 ng/mL, FIG. 3
  cytotoxic activity against eosinophils: comparable to the chimeric Lym2 antibody chLym2
Example 14, 0.1-1000 ng/mL, FIG. 11
  removal of eosinophils: removed
